How the values were obtained:
D3 domain deficient uPAR = molecular target: T1, D3 domain deficient uPAR (Homo sapiens, UniProt Q03405, DEL192-274); test: Yeast two hybrid with D3 domain deficient uPAR; assay type: binding
T1 construct: expressed in transfected cells; host or cells: yeast Y2HGold
Description: […]

c-Myc = c-Myc (Homo sapiens, UniProt P01106); test: LUC experiment in tobacco leaves with c-Myc; assay type: binding; parameters: with the full length of c-Myc and NMYC, respectively; expressed in transfected cells; host or cells: yeast Y2HGold
c-Myc, sequence (P01106 whole entry): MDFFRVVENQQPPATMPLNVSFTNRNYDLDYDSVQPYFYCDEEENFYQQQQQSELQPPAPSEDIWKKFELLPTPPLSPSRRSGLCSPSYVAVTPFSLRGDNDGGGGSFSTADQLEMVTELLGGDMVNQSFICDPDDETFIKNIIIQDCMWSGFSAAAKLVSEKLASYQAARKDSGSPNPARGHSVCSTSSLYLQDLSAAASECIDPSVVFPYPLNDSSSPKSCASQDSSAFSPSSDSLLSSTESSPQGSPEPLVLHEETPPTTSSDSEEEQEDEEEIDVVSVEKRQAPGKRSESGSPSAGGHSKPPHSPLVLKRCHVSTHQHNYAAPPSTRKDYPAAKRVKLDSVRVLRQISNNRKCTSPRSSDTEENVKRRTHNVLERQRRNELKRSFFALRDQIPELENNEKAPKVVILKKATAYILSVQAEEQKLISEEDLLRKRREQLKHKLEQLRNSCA
Description: Using the method of LUC experiment, c-Myc (NCBI accession number: NM_002467.6) was subcloned to pCAMBIA NLuc vector (Chen, H., et al. “Firefly Luciferase Complementation Imaging Assay for Protein-Protein Interactions in Plants.” Plant Physiology 146.2(2008):368-376.) between the KpnI and SalI cleavage sites, and GhJAZ1 (SEQ ID No. 39) was subcloned to pCAMBIA-CLuc vector (Chen, H., et al. “Firefly Luciferase Complementation Imaging Assay for Protein-Protein Interactions in Plants.” Plant Physiology 146.2(2008):368-376.) between the KpnI and SalI cleavage sites. The constructed recombinant plasmids verified to be positive by sequencing were transformed into Agrobacterium GV3101 (pSoup-p19) (Shanghai Weidi biology technology co., Ltd, Cat. No.: AC1003), which were co-transfected into tobacco leaves. 2-3 days after injection, the infected leaves coated with the fluorescent substrate were placed in a dark chamber of the instrument for at least 6 min before taking images to quench fluorescence, followed by observation on the Nightowl-II LB983 instrument, using IndigoBasic software under the luciferase-5 min setting conditions. Cultivation was performed after co-infection. If there is interaction, LUC luciferase is expressed, and luminescence is detected after substrate application. As shown in F in FIG. 6, GhJAZ1 interacts with c-Myc.

T1 sequence (Q03405 with tags, fused parts or gaps DEL192-274): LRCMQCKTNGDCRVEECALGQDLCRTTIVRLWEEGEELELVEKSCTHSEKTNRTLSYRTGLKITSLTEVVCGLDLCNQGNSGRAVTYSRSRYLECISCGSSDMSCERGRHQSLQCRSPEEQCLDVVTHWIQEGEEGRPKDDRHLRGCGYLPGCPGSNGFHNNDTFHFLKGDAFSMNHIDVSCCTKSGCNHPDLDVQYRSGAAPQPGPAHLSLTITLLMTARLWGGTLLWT

B1: GhJAZ1: cotton JAZ1 protein, gene number Gh_A05G0260, sequence SEQ ID No. 4; prokaryotically expressed with His tag, about 30 KD (protein)
chain: MSSCSESTAMKPARSPEKPSFAQTCNLLSQYLKEKGSFGDLSLGMTCNVEANGTPVVPPPTMNLFPLNDKSDDVCGRNGGNPKNLTSMDLFPQQAGLASKDDSPNKLEPQTAPMTIFYGGQVIVFNDFPANKAKEIMLLASNSSSQSNNSFNPIPFTSSIARSPIESSIGVPPTSKPVHPAQRAVPGDLPIARRASLHRFLEKRKDRITAKAPYQINNSAAAPSLSGDNKSWLGLAAQSP
modifications: His tag
notes: prokaryotically expressed with His tag, about 30 KD
B1 was tested. Which “interaction with D3 domain deficient uPAR” value (D3 domain deficient uPAR) did it give?
The value was “significantly weakened to none”.

What about the “interaction with c-Myc” value (c-Myc) of the same molecule?
The value was “interacts”.

From patent publication US20240279288A1, “APPLICATION OF PLANT JAZ PROTEINS AND DERIVED POLYPEPTIDES IN PREVENTION AND TREATMENT OF HUMAN AND ANIMAL TUMORS” (ANYANG INSTITUTE OF SINO-COTTON INDUSTRY INNOVATION, priority 2021, published 2024)
